This is an account of results in patent publication US20250027068.

B1: PRT-26 (protein)
chain: MANQEIRYSEVTPYHVTSVWTKGVTPPANFTQGEDVFHAPYVANQGWYDITKTFNGKDDLLCGAATAGNMLHWWFDQNKDQIERYLKEHPEKQKINFNGEQMFDVKEAIDTKDSQTDSKLFEYFKEKAFPYLSTKHLGVFPDHVLDMFINGYRLSLTNHGPTPVKEGSKDPRGGIFDAVFTRGDQSKLLTSRHDFKEKTLKEISDLIKQELTEGKALGLSHTYANVRINHVINLWGADFDSEGNLKAIYVTDSDSNASIGMKKYFVGVNSAGKVAISAKEIKEDNIGAQVLGLFTLSTGQDIWNQTN
B2: PRT-31 (protein)
chain: MANQEIRYSEVTPYHVTSVWTKGVTPPANFTQGEDVFHAPYVANQGWYDITKTFNGKDDLLCGAATAGNMLHWWFDQNKDQIERYLEEHPEKQKINFNGEQMFDVKEAIDTKNHQLDSKLFEYFKEKAFPYLSTKHLGVFPDHVIDMFINGYRLSLTNHGPTPVKEGSKDPRGGIFDAVFTRGDQSKLLTSRHDFKEKNLKEISDLIKKELTEGKALGLSHTYANVRINHVINLWGADFDSNGNLKAIYVTDSDSNASIGMKKYFVGVNSAGKVAISAKEIKEDNIGAQVLGLFTLSTGQDSWNQTN
B3: PRT-28 (protein)
chain: MANQEIRYSEVTPYHVTSVWTKGVTPPANFTQGEDVFHAPYVANQGWYDITKTFNGKDDLLCGAATAGNMLHWWFDQNKDQIKRYLEEHPEKQKINFNGEQMFDVKEAIDTKDHQLDSKLFEYFKEKAFPYLSTKHLGVFPDHVLDMFINGYRLSLTNHGPTPVKEGSKDPRGGIFDAVFTRGDQSKLLTSRHDFKEKTLKEISDLIKKELTEGKALGLSHTYANVRINHVINLWGADFDSNGNLKAIYVTDSDSNASIGMKKYFVGVNSAGKVAISAKEIKEDNIGAQVLGLFTLSTGQDSWNQTN
B4: PRT-30 (protein)
chain: MANQEIRYSEVTPYHVTSVWTKGVTPPANFTQGEDVFHAPYVANQGWYDITKTFNGKDDLLCGAATAGNMLHWWFDQNKDQIKRYLEEHPEKQKINFNGEQMFDVKEAIDTKNHQLDSKLFEYFKEKAFPYLSTKHLGVFPDHVLDMFINGYRLSLTNHGPTPVKEGSKDPRGGIFDAVFTRGDQSKLLTSRHDFKEKTLKEISDLIKKELTEGKALGLSHTYANVRINHVINLWGADFDSEGNLKAIYVTDSDSNASIGMKKYFVGVNSAGKVAISAKEIKEDNIGAQVLGLFTLSTGQDSWNQTN
B5: PRT-32 (protein)
chain: MANQEIRYSEVTPYHVTSVWTKGVTPPANFTQGEDVFHAPYVANQGWYDITKTFNGKDDLLCGAATAGNMLHWWFDQNKDQIKRYLEEHPEKQKINFNGEQMFDVKEAIDTKNHQLDSKLFEYFKEKAFPYLSTKHLGVFPDHVIDMFINGYRLSLTNHGPTPVKEGSKDPRGGIFDAVFTRGDQSKLLTSRHDFKEKNLKEISDLIKKELTEGKALGLSHTYANVRINHVINLWGADFDSNGNLKAIYVTDSDSNASIGMKKYFVGVNSAGKVAISAKEIKEDNIGAQVLGLFTLSTGQDIWNQTN
B6: PRT-35 (protein)
chain: MANQEIRYSEVTPYHVTSVWTKGVTPPANFTQGEDVFHAPYVANQGWYDITKTFNGKDDLLCGAATAGNMLHWWFDQNKDQIKRYLEEHPEKQKINFNGEQMFDVKEAIDTKDHQLDSKLFEYFKEKAFPYLSTKHLGVFPDHVIDMFINGYRLSLTNHGPTPVKEGSKDPRGGIFDAVFTRGDQSKLLTSRHDFKEKNLKEISDLIKKELTEGKALGLSHTYANVRINHVINLWGADFDSNGNLKAIYVTDSDSNASIGMKKYFVGVNSAGKVAISAKEIKEDNIGAQVLGLFTLSTGQDSWNQTN
B7: PRT-34 (protein)
chain: MANQEIRYSEVTPYHVTSVWTKGVTPPANFTQGEDVFHAPYVANQGWYDITKTFNGKDDLLCGAATAGNMLHWWFDQNKDQIKRYLEEHPEKQKINFNGEQMFDVKEAIDTKNSQLDSKLFEYFKEKAFPYLSTKHLGVFPDHVIDMFINGYRLSLTNHGPTPVKEGSKDPRGGIFDAVFTRGDQSKLLTSRHDFKEKNLKEISDLIKKELTEGKALGLSHTYANVRINHVINLWGADFDSNGNLKAIYVTDSDSNASIGMKKYFVGVNSAGKVAISAKEIKEDNIGAQVLGLFTLSTGQDSWNQTN
B8: PRT-36 (protein)
chain: MANQEIRYSEVTPYHVTSVWTKGVTPPANFTQGEDVFHAPYVANQGWYDITKTFNGKDDLLCGAATAGNMLHWWFDQNKDQIKRYLEEHPEKQKINFNGEQMFDVKEAIDTKNHQTDSKLFEYFKEKAFPYLSTKHLGVFPDHVIDMFINGYRLSLTNHGPTPVKEGSKDPRGGIFDAVFTRGDQSKLLTSRHDFKEKNLKEISDLIKKELTEGKALGLSHTYANVRINHVINLWGADFDSNGNLKAIYVTDSDSNASIGMKKYFVGVNSAGKVAISAKEIKEDNIGAQVLGLFTLSTGQDSWNQTN
B9: PRT-33 (protein)
chain: MANQEIRYSEVTPYHVTSVWTKGVTPPANFTQGEDVFHAPYVANQGWYDITKTFNGKDDLLCGAATAGNMLHWWFDQNKDQIKRYLKEHPEKQKINFNGEQMFDVKEAIDTKNHQLDSKLFEYFKEKAFPYLSTKHLGVFPDHVIDMFINGYRLSLTNHGPTPVKEGSKDPRGGIFDAVFTRGDQSKLLTSRHDFKEKNLKEISDLIKKELTEGKALGLSHTYANVRINHVINLWGADFDSNGNLKAIYVTDSDSNASIGMKKYFVGVNSAGKVAISAKEIKEDNIGAQVLGLFTLSTGQDSWNQTN
B10: PRT-1 (protein)
chain: MANQEIRYSEVTPYHVTSVWTKGVTPPANFTQGEDVFHAPYVANQGWYDITKTFNGKDDLLCGAATAGNMLHWWFDQNKDQIKRYLEEHPEKQKINFNGEQMFDVKEAIDTKNHQLDSKLFEYFKEKAFPYLSTKHLGVFPDHVIDMFINGYRLSLTNHGPTPVKEGSKDPRGGIFDAVFTRGDQSKLLTSRHDFKEKNLKEISDLIKKELTEGKALGLSHTYANVRINHVINLWGADFDSNGNLKAIYVTDSDSNASIGMKKYFVGVNSAGKVAISAKEIKEDNIGAQVLGLFTLSTGQDSWNQTN
B11: PRT-37 (protein)
chain: MANQEIRYSEVTPYHVTSVWTKGVTPPANFTQGEDVFHAPYVANQGWYDITKTFNGKDDLLCGAATAGNMLHWWFDQNKDQIKRYLEEHPEKQKINFNGEQMFDVKEAIDTKNHQLDSKLFEYFKEKAFPYLSTKHLGVFPDHVIDMFINGYRLSLTNHGPTPVKEGSKDPRGGIFDAVFTRGDQSKLLTSRHDFKEKTLKEISDLIKKELTEGKALGLSHTYANVRINHVINLWGADFDSNGNLKAIYVTDSDSNASIGMKKYFVGVNSAGKVAISAKEIKEDNIGAQVLGLFTLSTGQDSWNQTN
B12: PRT-27 (protein)
chain: MANQEIRYSEVTPYHVTSVWTKGVTPPANFTQGEDVFHAPYVANQGWYDITKTFNGKDDLLCGAATAGNMLHWWFDQNKDQIKRYLEEHPEKQKINFNGEQMFDVKEAIDTKNHQTDSKLFEYFKEKAFPYLSTKHLGVFPDHVIDMFINGYRLSLTNHGPTPVKEGSKDPRGGIFDAVFTRGDQSKLLTSRHDFKEKNLKEISDLIKKELTEGKALGLSHTYANVRINHVINLWGADFDSNGNLEAIYVTDSDSNASIGMKKYFVGVNSAGKVAISAKEIKEDNIGAQVLGLFTLSTGQDSWNQTN
B13: PRT-29 (protein)
chain: MANQEIRYSEVTPYHVTSVWTKGVTPPANFTQGEDVFHAPYVANQGWYDITKTFNGKDDLLCGAATAGNMLHWWFDQNKDQIKRYLEEHPEKQKINFNGEQMFDVKEAIDTKNHQLDSKLFEYFKEKAFPYLSTKHLGVFPDHVIDMFINGYRLSLTNHGPTPVKEGSKDPRGGIFDAVFTRGDQSKLLTSRHDFKEKNLKEISDLIKQELTEGKALGLSHTYANVRINHVINLWGADFDSNGNLEAIYVTDSDSNASIGMKKYFVGVNSAGKVAISAKEIEEDNIGAQVLGLFTLSTGQDSWNQTN

This data set has as its target pooled human IgG.
Protein B1 had an Enzyme Activity Endpoint Assay: Fab′2 of 40 ng/µL, an Enzyme Activity Endpoint Assay: Fc of 101 ng/µL, an Enzyme Activity Endpoint Assay: IgG of 11 ng/µL and an Enzyme Activity Endpoint Assay: scIgG of 14 ng/µL.
Protein B2 returned an Enzyme Activity Endpoint Assay: Fab′2 of 46 ng/µL, an Enzyme Activity Endpoint Assay: Fc of 126 ng/µL, an Enzyme Activity Endpoint Assay: IgG of 13 ng/µL and an Enzyme Activity Endpoint Assay: scIgG of 15 ng/µL.
For B3, in that order: 16 ng/µL, 89 ng/µL, 14 ng/µL and 44 ng/µL.
For B4, in that order: 3 ng/µL, 73 ng/µL, 21 ng/µL and 65 ng/µL.
For B5, in that order: 48 ng/µL, 124 ng/µL, 14 ng/µL and 17 ng/µL.
B6: the Enzyme Activity Endpoint Assay: Fab′2 was found to be 37 ng/µL, the Enzyme Activity Endpoint Assay: Fc stood at 104 ng/µL, the Enzyme Activity Endpoint Assay: IgG was found to be 9 ng/µL and the Enzyme Activity Endpoint Assay: scIgG worked out at 14 ng/µL.
Consider B7, for which the Enzyme Activity Endpoint Assay: Fab′2 was 37 ng/µL, the Enzyme Activity Endpoint Assay: Fc came to 95 ng/µL, the Enzyme Activity Endpoint Assay: IgG was determined as 10 ng/µL and the Enzyme Activity Endpoint Assay: scIgG came out at 14 ng/µL.
With B8, the Enzyme Activity Endpoint Assay: Fab′2 was 48 ng/µL, the Enzyme Activity Endpoint Assay: Fc was 123 ng/µL, the Enzyme Activity Endpoint Assay: IgG amounted to 15 ng/µL and the Enzyme Activity Endpoint Assay: scIgG was 16 ng/µL.
In turn, B9 had an Enzyme Activity Endpoint Assay: Fab′2 of 26 ng/µL, an Enzyme Activity Endpoint Assay: Fc of 93 ng/µL, an Enzyme Activity Endpoint Assay: IgG of 17 ng/µL and an Enzyme Activity Endpoint Assay: scIgG of 44 ng/µL.
In turn, B10 gave an Enzyme Activity Endpoint Assay: Fab′2 of 44 ng/µL, an Enzyme Activity Endpoint Assay: Fc of 100 ng/µL, an Enzyme Activity Endpoint Assay: IgG of 23 ng/µL and an Enzyme Activity Endpoint Assay: scIgG of 21 ng/µL.
On to B11, for which the Enzyme Activity Endpoint Assay: Fab′2 is 4 ng/µL, the Enzyme Activity Endpoint Assay: Fc was 79 ng/µL, the Enzyme Activity Endpoint Assay: IgG amounted to 23 ng/µL and the Enzyme Activity Endpoint Assay: scIgG stood at 69 ng/µL.
The protein B12 displayed an Enzyme Activity Endpoint Assay: Fab′2 of 44 ng/µL, an Enzyme Activity Endpoint Assay: Fc of 112 ng/µL, an Enzyme Activity Endpoint Assay: IgG of 14 ng/µL and an Enzyme Activity Endpoint Assay: scIgG of 13 ng/µL.
For B13, in that order: 19 ng/µL, 95 ng/µL, 27 ng/µL and 43 ng/µL.
